± gives the standard deviation of the averaged measurements.
Experiment: total protein half-life in vivo (active degradation + dilution); higher = more stable protein
[1] = E. coli NCM3722 delta-clpP delta-lon delta-hslV, growth: N-lim chemostat, doubling time 6 h
[2] = E. coli NCM3722 delta-clpP, growth: N-lim chemostat, doubling time 6 h
[3] = E. coli NCM3722 delta-hslV, growth: N-lim chemostat, doubling time 6 h
[4] = E. coli NCM3722 delta-smpB, growth: N-lim chemostat, doubling time 6 h
[5] = wild type E. coli NCM3722, growth: C-lim chemostat, doubling time 3 h
[6] = wild type E. coli NCM3722, growth: C-lim chemostat, doubling time 6 h
[7] = wild type E. coli NCM3722, growth: C-lim chemostat, doubling time 12 h
[8] = wild type E. coli NCM3722, growth: N-lim chemostat, doubling time 6 h
[9] = wild type E. coli NCM3722, growth: N-lim chemostat, doubling time 12 h
[10] = wild type E. coli NCM3722, growth: P-lim chemostat, doubling time 6 h
[11] = wild type E. coli NCM3722, growth: P-lim chemostat, doubling time 12 h
[12] = E. coli NCM3722 delta-lon, growth: N-lim chemostat, doubling time 6 h

MDTELLKTFLEVSRTRHFGRAAESLYLTQSAVSFRIRQLENQLGVNLFTRHRNNIRLTAAGEKLLPYAETLMSTWQAARKEVAHTSRHNEFSIGASASLWECMLNQWLGRLYQNQDAHTGLQFEARIAQRQSLVKQLHERQLDLLITTEAPKMDEFSSQLLGYFTLALYTSAPSKLKGDLNYLRLEWGPDFQQHEAGLIGADEVPILTTSSAELAQQQIAMLNGCTWLPVSWARKKGGLHTVVDSTTLSRPLYAIWLQNSDKNALIRDLLKINVLDEVY [P0A8R9]
total protein half-life in vivo [1]: 5.38 ± 0.37 h
total protein half-life in vivo [2]: 4.82 ± 0.081 h
total protein half-life in vivo [3]: 4.553 ± 0.02 h
total protein half-life in vivo [4]: 4.1 ± 0.12 h
total protein half-life in vivo [5]: 3.05 ± 0.072 h
total protein half-life in vivo [6]: 5.676 ± 0.025 h
total protein half-life in vivo [7]: 9.53 ± 0.73 h
total protein half-life in vivo [8]: 4.72 ± 0.46 h
total protein half-life in vivo [9]: 7.65 ± 0.25 h
total protein half-life in vivo [10]: 6.13 ± 0.24 h
total protein half-life in vivo [11]: 11.7 ± 2 h

MLPSQSPAIFTVSRLNQTVRLLLEHEMGQVWISGEISNFTQPASGHWYFTLKDDTAQVRCAMFRNSNRRVTFRPQHGQQVLVRANITLYEPRGDYQIIVESMQPAGEGLLQQKYEQLKAKLQAEGLFDQQYKKPLPSPAHCVGVITSKTGAALHDILHVLKRRDPSLPVIIYPAAVQGDDAPGQIVRAIELANQRNECDVLIVGRGGGSLEDLWSFNDERVARAIFTSRIPVVSAVGHETDVTIADFVADLRAPTPSAAAEVVSRNQQELLRQVQSTRQRLEMAMDYYLANRTRRFTQIHHRLQQQHPQLRLARQQTMLERLQKRMSFALENQLKRTGQQQQRLTQRLNQQNPQPKIHRAQTRIQQLEYRLAETLRAQLSATRERFGNAVTHLEAVSPLSTLARGYSVTTATDGNVLKKVKQVKAGEMLTTRLEDGWIESEVKNIQPVKKSRKKVH
total protein half-life in vivo [1]: 6.078 ± 0.013 h
total protein half-life in vivo [2]: 5.772 ± 0.023 h
total protein half-life in vivo [3]: 6.48 ± 0.87 h
total protein half-life in vivo [12]: 5.98 ± 0.4 h
total protein half-life in vivo [4]: 5.71 ± 0.13 h
total protein half-life in vivo [5]: 3.32 ± 0.21 h
total protein half-life in vivo [6]: 6.11 ± 0.37 h
total protein half-life in vivo [7]: 11.39 ± 0.059 h
total protein half-life in vivo [8]: 5.89 ± 0.5 h
total protein half-life in vivo [9]: 12.33 ± 0.035 h
total protein half-life in vivo [10]: 6.05 ± 0.67 h
total protein half-life in vivo [11]: 13.1 ± 2.8 h

MKSMNIAASSELVSRLSSHRRVVALGDTDFTDVAAVVITAADSRSGILALLKRTGFHLPVFLYSEHAVELPAGVTAVINGNEQQWLELESAACQYEENLLPPFYDTLTQYVEMGNSTFACPGHQHGAFFKKHPAGRHFYDFFGENVFRADMCNADVKLGDLLIHEGSAKDAQKFAAKVFHADKTYFVLNGTSAANKVVTNALLTRGDLVLFDRNNHKSNHHGALIQAGATPVYLEASRNPFGFIGGIDAHCFNEEYLRQQIRDVAPEKADLPRPYRLAIIQLGTYDGTVYNARQVIDTVGHLCDYILFDSAWVGYEQFIPMMADSSPLLLELNENDPGIFVTQSVHKQQAGFSQTSQIHKKDNHIRGQARFCPHKRLNNAFMLHASTSPFYPLFAALDVNAKIHEGESGRRLWAECVEIGIEARKAILARCKLFRPFIPPVVDGKLWQDYPTSVLASDRRFFSFEPGAKWHGFEGYAADQYFVDPCKLLLTTPGIDAETGEYSDFGVPATILAHYLRENGIVPEKCDLNSILFLLTPAESHEKLAQLVAMLAQFEQHIEDDSPLVEVLPSVYNKYPVRYRDYTLRQLCQEMHDLYVSFDVKDLQKAMFRQQSFPSVVMNPQDAHSAYIRGDVELVRIRDAEGRIAAEGALPYPPGVLCVVPGEVWGGAVQRYFLALEEGVNLLPGFSPELQGVYSETDADGVKRLYGYVLK
total protein half-life in vivo [1]: 4.97 ± 0.45 h
total protein half-life in vivo [2]: 4.68 ± 0.86 h
total protein half-life in vivo [3]: 4.28 ± 0.14 h
total protein half-life in vivo [12]: 4.69 ± 0.36 h
total protein half-life in vivo [4]: 4.34 ± 0.089 h
total protein half-life in vivo [6]: 5.18 ± 0.13 h
total protein half-life in vivo [7]: 8.46 ± 1.1 h
total protein half-life in vivo [8]: 4.44 ± 0.13 h
total protein half-life in vivo [9]: 8.46 ± 0.59 h
total protein half-life in vivo [10]: 6.15 ± 0.14 h
total protein half-life in vivo [11]: 12.3 ± 1.8 h

MMILVTGGARSGKSRHAEALIGDSSQVLYIATSQILDDEMAARIEHHRQGRPEHWRTVERWQHLDELIHADINPNEVVLLECVTTMVTNLLFDYGGDKDPDEWDYQAMEQAINAEIQSLIAACQRCPAKVVLVTNEVGMGIVPESRLARHFRDIAGRVNQQLAAAANEVWLVVSGIGVKIK [P0AE76]
total protein half-life in vivo [1]: 4.52 h
total protein half-life in vivo [2]: 3.9 h
total protein half-life in vivo [3]: 4.32 h
total protein half-life in vivo [4]: 4.68 h
total protein half-life in vivo [6]: 5.17 h
total protein half-life in vivo [7]: 10.5 h
total protein half-life in vivo [8]: 3.85 h
total protein half-life in vivo [9]: 8.3 h
total protein half-life in vivo [10]: 5.94 h
total protein half-life in vivo [11]: 9.83 ± 1.8 h

MYRIVLGKVSTLSAAPLPPGLREQAPQGPRRERWLAGRALLSHTLSPLPEIIYGEQGKPAFAPEMPLWFNLSHSGDDIALLLSDEGEVGCDIEVIRPRANWRWLANAVFSLGEHAEMDAVHPDQQLEMFWRIWTRKEAIVKQRGGSAWQIVSVDSTYHSSLSVSHCQLENLSLAICTPTPFTLTADSVQWIDSVN
total protein half-life in vivo [1]: 4.86 ± 0.67 h
total protein half-life in vivo [3]: 3.56 ± 0.17 h
total protein half-life in vivo [12]: 3.99 ± 0.64 h
total protein half-life in vivo [4]: 2.53 ± 0.075 h
total protein half-life in vivo [5]: 2.55 ± 0.032 h
total protein half-life in vivo [6]: 4.94 ± 0.18 h
total protein half-life in vivo [7]: 8.278 ± 0.081 h
total protein half-life in vivo [8]: 3.78 ± 0.16 h
total protein half-life in vivo [9]: 6.11 ± 0.44 h
total protein half-life in vivo [10]: 5.86 ± 0.65 h
total protein half-life in vivo [11]: 11.1 ± 2.4 h

MSEALLNAGRQTLMLELQEASRLPERLGDDFVRAANIILHCEGKVVVSGIGKSGHIGKKIAATLASTGTPAFFVHPAEALHGDLGMIESRDVMLFISYSGGAKELDLIIPRLEDKSIALLAMTGKPTSPLGLAAKAVLDISVEREACPMHLAPTSSTVNTLMMGDALAMAVMQARGFNEEDFARSHPAGALGARLLNKVHHLMRRDDAIPQVALTASVMDAMLELSRTGLGLVAVCDAQQQVQGVFTDGDLRRWLVGGGALTTPVNEAMTVGGTTLQSQSRAIDAKEILMKRKITAAPVVDENGKLTGAINLQDFYQAGII
total protein half-life in vivo [1]: 5.02 ± 0.39 h
total protein half-life in vivo [2]: 4.77 ± 0.57 h
total protein half-life in vivo [3]: 4.52 ± 0.3 h
total protein half-life in vivo [12]: 4.85 ± 0.39 h
total protein half-life in vivo [4]: 4.33 ± 0.28 h
total protein half-life in vivo [5]: 3.14 ± 0.043 h
total protein half-life in vivo [6]: 5.34 ± 0.49 h
total protein half-life in vivo [7]: 9.87 ± 2.3 h
total protein half-life in vivo [8]: 4.55 ± 0.18 h
total protein half-life in vivo [9]: 7.014 ± 0.018 h
total protein half-life in vivo [10]: 5.2 ± 0.36 h
total protein half-life in vivo [11]: 12.3 ± 0.49 h

MSEKPLTKTDYLMRLRRCQTIDTLERVIEKNKYELSDNELAVFYSAADHRLAELTMNKLYDKIPSSVWKFIR [P0ACE3]
total protein half-life in vivo [1]: 2.93 h
total protein half-life in vivo [6]: 1.69 ± 0.43 h
total protein half-life in vivo [7]: 0.865 h

MPHNPIRVVVGPANYFSHPGSFNHLHDFFTDEQLSRAVWIYGKRAIAAAQTKLPPAFGLPGAKHILFRGHCSESDVQQLAAESGDDRSVVIGVGGGALLDTAKALARRLGLPFVAVPTIAATCAAWTPLSVWYNDAGQALHYEIFDDANFMVLVEPEIILNAPQQYLLAGIGDTLAKWYEAVVLAPQPETLPLTVRLGINNAQAIRDVLLNSSEQALSDQQNQQLTQSFCDVVDAIIAGGGMVGGLGDRFTRVAAAHAVHNGLTVLPQTEKFLHGTKVAYGILVQSALLGQDDVLAQLTGAYQRFHLPTTLAELEVDINNQAEIDKVIAHTLRPVESIHYLPVTLTPDTLRAAFKKVESFKA
total protein half-life in vivo [1]: 4.77 ± 0.33 h
total protein half-life in vivo [2]: 4.6 ± 0.098 h
total protein half-life in vivo [3]: 4.1 ± 0.11 h
total protein half-life in vivo [12]: 4.91 ± 0.17 h
total protein half-life in vivo [4]: 4.21 ± 0.15 h
total protein half-life in vivo [5]: 2.67 ± 0.1 h
total protein half-life in vivo [6]: 5.28 ± 0.084 h
total protein half-life in vivo [7]: 9.15 ± 1.6 h
total protein half-life in vivo [8]: 4.38 h
total protein half-life in vivo [9]: 7.78 h
total protein half-life in vivo [10]: 5.64 ± 0.28 h
total protein half-life in vivo [11]: 11.2 ± 0.17 h
